Positions count from the first letter of the chain named.

T1: human MSLN-R1-his protein (human, UniProt Q13421 296-390)
T1 construct: Made in HEK293E cells, purified on nickel column; also called hMSLN-R1-his; human MSLN-R1 protein; not shown: His tag
T1 chain: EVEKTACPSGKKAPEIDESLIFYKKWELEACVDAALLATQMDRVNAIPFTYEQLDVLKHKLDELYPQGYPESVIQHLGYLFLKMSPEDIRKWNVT

T2: monkey MSLN on HEK293T-monkey MSLN recombinant cells (monkey)
T2 construct: Full-length precursor as transfected; processing on the cell is not described; also called HEK293-monkey MSLN
T2 chain: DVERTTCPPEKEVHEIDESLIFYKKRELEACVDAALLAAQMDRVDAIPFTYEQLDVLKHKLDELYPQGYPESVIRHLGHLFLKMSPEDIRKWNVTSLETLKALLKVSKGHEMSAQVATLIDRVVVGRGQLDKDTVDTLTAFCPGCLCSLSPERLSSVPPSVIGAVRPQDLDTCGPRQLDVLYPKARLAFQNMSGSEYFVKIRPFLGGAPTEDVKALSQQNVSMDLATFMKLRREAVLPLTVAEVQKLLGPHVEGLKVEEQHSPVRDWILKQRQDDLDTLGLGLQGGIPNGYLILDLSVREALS

B1: S009-F7.6.17 chimeric antibody (antibody, human IgG1, kappa, V domains shown)
VH: QVQLQQSGAELARPGASVKMSCKASGYTFTTYTMHWVKQRPGQGLEWIGYISPTGDFTKYNQKFKDKATLTTDKSSNTAFMQLSSLTSEDSAVYYCARWNGTVWFAYWGQGTLVTVSA
VL: DIVMTQSQKFMSTSVGDRVTVTCKASQALGTNVAWYQQKPGQSPKVLIYSASYRYSGVPYRFAGGGSGTDFTLTITNVQSEDLAEYFCQQYNNYPLTFGAGTKLELKR
notes: Human-murine chimeric antibody, human IgG1/kappa constant regions
B2: S009-F7.2.3 chimeric antibody (antibody, human IgG1, kappa, V domains shown)
VH: ELQLVESGGDLVKPGGSLKLSCAASGFTFSSNGMSWLRQTPDKRLEWVATISSGGRYTYYPDSVKGRFTISRDNAKNTLYLQMSSLKSEDTAMYYCARRGIYDYFDCWGQGTTLTVSS
VL: DIQMTQSPASLSISVGETVTITCRASENIHSSLAWYQQKQGKSPQLLVYAATNLADGVPSRFSGSGSGSQYSLKINSLQSEDFGTYYCQHFWGTPWTFGGGTKLDIKR
notes: as for B1
B3: S009-F7.25.19 chimeric antibody (antibody, human IgG1, kappa, V domains shown)
VH: QVQLQQPGTELVKPGASVKLSCKASGYTFTSYWMHWVKQRPGQGLEWIGNIIPSNGGTKYNEKFKSKATLTVDKSSSTAYMQLSSLTSEDSAVYYCSPHYYGGSPGFAYWGQGTLITVSA
VL: DIVMTQSQKFMSTSVGDRVSVICKASQNVGTNVAWYQQKPGQSPKALIYSASYRYSGVPDRFTGSGSGTDFTLTISNVQSEDLAEYFCQQYNSYPLTFGGGTKLEIKR
notes: as for B1
B4: F3.80.22-H5 (scFv, not shown: small tags and cut ends)
scFv: DIVMTQTPLSLPVTPGEPASISCRSSQSLEHNDGNTYLHWFLQKPGQSPQLLIYKVSNRFSGVPDRFSGSGSGTDFTLKISRVEAEDVGVYYCSQSTHVPFTFGQGTKLEIKGGGGSGGGGSGGGGSEVQLVQSGAEVKKPGATVKISCKVSGYTFTDYEIHWVQQAPGKGLEWMGAFDPEIGGSAYNQKFKDRVTITADKSTDTAYMELSSLRSEDTAVYYCTDYYGSSSGYFDVWGQGTTVTVSS
notes: also called S009-F3.80.22 humanized antibody VL1a + VH1
B5: F3.80.22-H10 (scFv, not shown: small tags and cut ends)
scFv: B4 scFv with D33N, Q43H, V151A, D204S
notes: also called S009-F3.80.22 humanized antibody VL2 + VH2
B6: F3.80.22-H2 (scFv, not shown: small tags and cut ends)
scFv: B4 scFv with D33N, V151A, D204S
notes: also called S009-F3.80.22 humanized antibody VL1 + VH2
B7: F3.80.22-H8 (scFv, not shown: small tags and cut ends)
scFv: B4 scFv with V151A, T203S, D204S, Q239T
notes: also called S009-F3.80.22 humanized antibody VL1a + VH4
B8: F3.80.22-H7 (scFv, not shown: small tags and cut ends)
scFv: B4 scFv with V151A, D204S, Q239T
notes: also called S009-F3.80.22 humanized antibody VL1a + VH3
B9: F3.80.22-H6 (scFv, not shown: small tags and cut ends)
scFv: B4 scFv with V151A, D204S
notes: also called S009-F3.80.22 humanized antibody VL1a + VH2
B10: F3.80.22-H3 (scFv, not shown: small tags and cut ends)
scFv: B4 scFv with D33N, V151A, D204S, Q239T
notes: also called S009-F3.80.22 humanized antibody VL1 + VH3
B11: F3.80.22-H4 (scFv, not shown: small tags and cut ends)
scFv: B4 scFv with D33N, V151A, T203S, D204S, Q239T
notes: also called S009-F3.80.22 humanized antibody VL1 + VH4
B12: F3.80.22-H1 (scFv, not shown: small tags and cut ends)
scFv: B4 scFv with D33N
notes: also called S009-F3.80.22 humanized antibody VL1 + VH1
B13: F3.80.22-H17 (scFv, not shown: small tags and cut ends)
scFv: EVQLVQSGAEVKKPGATVKISCKVSGYTFTDYEIHWVQQAPGKGLEWMGAFDPEIGGSAYNQKFKDRVTITADKSTDTAYMELSSLRSEDTAVYYCTDYYGSSSGYFDVWGQGTTVTVSSGGGGSGGGGSGGGGSDIVMTQTPLSLPVTPGEPASISCRSSQSLEHNDGNTYLHWFLQKPGQSPQLLIYKVSNRFSGVPDRFSGSGSGTDFTLKISRVEAEDVGVYYCSQSTHVPFTFGQGTKLEIK
notes: also called S009-F3.80.22 humanized antibody VH1 + VL1a

T5 sequence (Q13421 495-614): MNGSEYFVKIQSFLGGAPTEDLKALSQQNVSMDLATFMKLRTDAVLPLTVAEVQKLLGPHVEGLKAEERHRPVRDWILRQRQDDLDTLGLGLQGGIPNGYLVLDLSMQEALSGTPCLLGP
T4 sequence (Q13421 other isoform, or with tags, fused parts or gaps): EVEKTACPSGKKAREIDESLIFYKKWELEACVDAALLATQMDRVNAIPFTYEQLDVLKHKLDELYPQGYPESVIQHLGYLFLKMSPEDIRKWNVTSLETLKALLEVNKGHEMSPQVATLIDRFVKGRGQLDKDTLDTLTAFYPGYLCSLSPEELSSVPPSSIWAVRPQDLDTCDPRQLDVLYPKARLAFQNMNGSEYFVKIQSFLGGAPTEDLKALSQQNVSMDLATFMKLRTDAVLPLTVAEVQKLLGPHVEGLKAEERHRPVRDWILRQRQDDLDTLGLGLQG

The target of one assay is T1, human MSLN-R1-his protein. As to the kind of experiment: ELISA, coated antigen, antibody 0.0002 nM. In general terms: An ELISA detects its analyte on a solid surface through an enzyme-linked reagent.
Consider B1, for which the OD450 stood at 0.05.
Regarding B2, the OD450 came out at 0.06.

The target in another assay is T1, human MSLN-R1-his protein. As to the kind of experiment: ELISA, coated antigen, antibody 20 nM.
As for B1, the OD450 was found to be 0.06.
The same measure, in the same setting: as for B2, the figure is 0.08.

In a further assay the target is T1, human MSLN-R1-his protein. The assay is described as follows: ELISA, coated antigen, antibody 0.002 nM.
Consider B1, for which the OD450 is 0.05.
On the same count and under the same terms, to B2 belongs 0.06.

The target of another assay is T3, human MSLN-FL-his protein (human, UniProt Q13421 296-580).
T3 construct: Made in HEK293E cells, purified on nickel column; also called hMSLN-FL-his; human MSLN full-length protein; not shown: His tag
T3 sequence (Q13421 other isoform, or with tags, fused parts or gaps): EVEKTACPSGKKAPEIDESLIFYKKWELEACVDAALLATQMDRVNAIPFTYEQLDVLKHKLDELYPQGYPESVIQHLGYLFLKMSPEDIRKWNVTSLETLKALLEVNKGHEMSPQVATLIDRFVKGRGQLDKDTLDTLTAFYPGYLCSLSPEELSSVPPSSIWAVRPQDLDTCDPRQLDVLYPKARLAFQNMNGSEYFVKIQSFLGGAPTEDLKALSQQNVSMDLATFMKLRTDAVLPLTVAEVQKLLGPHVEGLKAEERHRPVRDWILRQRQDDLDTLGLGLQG
The assay is described as follows: ELISA, coated antigen, no antibody (blank).
B3 came in with an OD450 of 0.06.
The same measure, in the same setting: as for B1, the figure is 0.08; as for B2, 0.06.

The next assay addresses T3, human MSLN-FL-his protein. The assay is described as follows: ELISA, coated antigen, antibody 2 nM.
Turning to B3, the OD450 was determined as 2.39.
Turning to B1, the OD450 came out at 2.34.
Same read-out and setting: as for B2, the figure is 2.5.

The target of the next assay is T3, human MSLN-FL-his protein. As to the kind of experiment: ELISA, coated antigen, antibody 0.002 nM.
B3 registered an OD450 of 1.25.
Still for that read-out and setting: as for B1, the figure is 0.84; as for B2, 0.41.

Another assay has as its target T3, human MSLN-FL-his protein. The assay is described as follows: ELISA, coated antigen, antibody 20 nM.
B3: the OD450 was 2.48.
Same read-out and setting: to B1 belongs 2.49.
In turn, B2 displayed an OD450 of 2.5.

The next assay has as its target T4, human MSLN-hFc recombinant protein (human, UniProt Q13421 296-580).
T4 construct: Captured by an anti-human IgG antibody on the chip; also called human MSLN protein; Acro MSN-H5253
As to the kind of experiment: SPR (Biacore 8K), MSLN-hFc captured, antibody injected. For orientation: Surface plasmon resonance follows binding to a sensor surface in real time, without labels.
As to B4, the Kd (as a rule, the constant that tells how readily two partners part at equilibrium) turned out to be 159 nM; the koff (usually the first-order rate constant of dissociation) is 0.000565 s⁻¹; the kon (as a rule, a measure of how fast the partners come together) was determined as 3560 M⁻¹ s⁻¹.
As for B5, the Kd came out at 20.9 nM, the koff was found to be 0.000177 s⁻¹ and the kon was 8470 M⁻¹ s⁻¹.

A further assay concerns the target T5, human MSLN-R3 on HEK293T-hMSLN-R3 recombinant cells (human, UniProt Q13421 487-606).
T5 construct: the C-terminal limit is uncertain; also called human MSLN-R3 membrane protein
As to the kind of experiment: FACS, HEK293T-hMSLN-R3 cells.
Turning to B6, the EC50 (usually the concentration at which the effect is half-maximal) came out at 0.67 nM and the Maximum_MFI was 1790 MFI.
With B4, the EC50 worked out at 5.29 nM and the Maximum_MFI was 1370 MFI.
B7: the EC50 was found to be 10.2 nM and the Maximum_MFI was 1400 MFI.
The like results for B8 were, in that order, 3.91 nM and 1530 MFI.
With B9, the EC50 was 8.39 nM and the Maximum_MFI was 1440 MFI.
The like results for B5 were, in that order, 1.99 nM and 1800 MFI.
With B10, the EC50 was 4.41 nM and the Maximum_MFI was found to be 1750 MFI.
As for B11, the Maximum_MFI was found to be 1410 MFI.
For B12, the 50% effective concentration (EC50) worked out at 2.14 nM and the Maximum_MFI is 1700 MFI.
As for B13, the EC50 was 4.41 nM and the Maximum_MFI was found to be 1790 MFI.

The target of another assay is T1, human MSLN-R1-his protein. The assay is described as follows: ELISA, coated antigen, antibody 0.2 nM.
Consider B1, for which the OD450 turned out to be 0.05.
Still for that read-out and setting: to B2 belongs 0.06.

Another assay addresses T1, human MSLN-R1-his protein. The assay is described as follows: ELISA, coated antigen, antibody 200 nM.
As to B1, the OD450 is 0.08.
For B2, the OD450 was 0.1.

The target in a further assay is T1, human MSLN-R1-his protein. As to the kind of experiment: ELISA, coated antigen, no antibody (blank).
Consider B1, for which the OD450 turned out to be 0.07.
For B2, the OD450 came to 0.07.

The target of another assay is T1, human MSLN-R1-his protein. As to the kind of experiment: ELISA, coated antigen, antibody 0.02 nM.
For B1, the OD450 came to 0.05.
B2 showed an OD450 of 0.06.

In the next assay the target is T2, monkey MSLN on HEK293T-monkey MSLN …. The assay is described as follows: FACS, HEK293T-monkey MSLN cells. In general terms: Flow cytometry measures light scatter and fluorescence of single cells or particles in a stream.
B6: the Maximum_MFI was found to be 303 MFI and the binding result was “no binding”.
For B4, the Maximum_MFI came out at 302 MFI and the binding result is given as “no binding”.
Take B7: the Maximum_MFI is 317 MFI and the binding result is recorded as “no binding”.
The like results for B8 were, in that order, 329 MFI and “no binding”.
In the same order, the values of B9 are 338 MFI and “no binding”.
The like results for B5 were, in that order, 381 MFI and “no binding”.
For B10, the Maximum_MFI amounted to 330 MFI and the binding result is listed as “no binding”.
In the same order, the values of B11 are 357 MFI and “no binding”.
The like results for B12 were, in that order, 278 MFI and “no binding”.
In the same order, the values of B13 are 356 MFI and “no binding”.

Another assay addresses T3, human MSLN-FL-his protein. The assay is described as follows: ELISA, coated antigen, antibody 0.2 nM.
B3 returned an OD450 of 2.4.
The same measure, in the same setting: to B1 belongs 2.4.
The same measure, in the same setting: as for B2, the figure is 2.3.

In another assay the target is T1, human MSLN-R1-his protein. The assay is described as follows: ELISA, coated antigen, antibody 2 nM.
In the case of B1, the OD450 came out at 0.05.
For B2, the OD450 was found to be 0.08.

The target in another assay is T3, human MSLN-FL-his protein. As to the kind of experiment: ELISA, coated antigen, antibody 0.0002 nM.
B3 returned an OD450 of 0.52.
The molecule B1 came in with an OD450 of 0.22.
B2 registered an OD450 of 0.15.

For the next assay, the target named is T3, human MSLN-FL-his protein. The assay is described as follows: ELISA, coated antigen, antibody 200 nM.
Consider B3, for which the OD450 came to 2.32.
The molecule B1 displayed an OD450 of 2.75.
Still for that read-out and setting: to B2 belongs 2.91.

A further assay deals with T3, human MSLN-FL-his protein. The assay is described as follows: ELISA, coated antigen, antibody 0.02 nM.
B3 showed an OD450 of 1.9.
Molecule B1 yielded an OD450 of 1.78.
The molecule B2 registered an OD450 of 1.28.

Values taken from US20250250357A1 (NANJING ZAIMING PHARMACEUTICAL, published 2025).
